For test [1], the target named is monothiol glutaredoxin-1 from Clostridium oremlandii (C16S) (Clostridium oremlandii (strain OhILAs)). The test can be described thus: crystal structure; m-cGrx1 alone (β1-swap), formed in the presence of hydrogen peroxide; crystals from 0.1 M HEPES pH 7.5, 20% PEG 400, 8% PEG 8000, 20°C.
Test [2] shares this target. The test is described as follows: crystal structure; m-cGrx1–cMsrA complex (β3-swap), formed by incubation with 5 mM methionine sulfoxide at 4°C for 2 h and purified on Superdex 75; crystals from 0.1 M sodium phosphate/citric acid pH 4.2, 0.4 M potassium phosphate (dibasic)/1.6 M sodium phosphate (monobasic), 20°C.
The target in test [3] is dithiol glutaredoxin-1 from Clostridium oremlandii (strain OhILAs) (Clostridium oremlandii (strain OhILAs)). The test can be described thus: crystal structure; d-cGrx1 alone; crystals from 0.1 M sodium phosphate/citric acid pH 4.2, 0.2 M lithium sulfate, 20% PEG 1000, 20°C.

Data on three substances can be found in paper PMC7642778.

In the case of “monothiol glutaredoxin-1 from Clostridium oremlandii (C16S) (enzyme)”, the stoichiometry N in test [1] and in test [2] was 4 each time. On to “methionine sulfoxide reductase A from Clostridium oremlandii (enzyme)”, for which the stoichiometry N (cGrx1 per cMsrA (four cGrx1 : two cMsrA)) in test [2] was found to be 2. As to “dithiol glutaredoxin-1 from Clostridium oremlandii (strain OhILAs) (enzyme)”, in test [3], the stoichiometry N (in general, a count of units in the complex or per binding partner) is 2.
